Experimental data from patent EP4810608A2.

What was measured:
murine IL-11 (mouse) = murine IL-11 (mouse) (UniProt P47873); assay: cell-based or functional assay
human IL-11 (human) = human IL-11 (human) (UniProt P20809); assay: cell-based or functional assay
Chain of UniProt P20809 (P20809 22-199 limits assumed): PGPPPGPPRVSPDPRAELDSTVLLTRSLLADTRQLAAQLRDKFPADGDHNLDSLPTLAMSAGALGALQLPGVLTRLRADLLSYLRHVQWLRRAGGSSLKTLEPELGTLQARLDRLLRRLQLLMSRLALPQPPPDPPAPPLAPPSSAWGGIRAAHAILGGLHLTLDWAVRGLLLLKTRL

Chain of UniProt P47873 (P47873 22-199 limits assumed): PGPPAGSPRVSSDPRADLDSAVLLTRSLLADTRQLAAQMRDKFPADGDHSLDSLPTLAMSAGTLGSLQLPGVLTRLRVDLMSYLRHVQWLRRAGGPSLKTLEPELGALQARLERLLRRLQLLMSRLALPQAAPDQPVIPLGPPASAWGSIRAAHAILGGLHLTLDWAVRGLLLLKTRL

- percentage of activated fibroblasts normalised to non-stimulated cultures (fold of non-stimulated cultures) (murine IL-11 (mouse)): 1.24
- percentage of activated mouse atrial fibroblasts with TGFβ1, against unstimulated cultures (fold of unstimulated cultures) (murine IL-11 (mouse)): 1.44
- percentage of activated mouse dermal fibroblasts with TGFβ1 (% activated fibroblasts) (murine IL-11 (mouse)): 39.4
- percentage of activated (αSMA-positive) human atrial fibroblasts with TGFβ1 (% activated fibroblasts) (human IL-11 (human)): 28.3
- percentage of activated fibroblasts normalised to non-stimulated cultures (fold of non-stimulated cultures) (human IL-11 (human)): 0.99
- percentage of activated human atrial fibroblasts with TGFβ1, against unstimulated cultures (fold of unstimulated cultures) (human IL-11 (human)): 0.89
Substance: neutralising anti-human IL-11 monoclonal antibody (Monoclonal Mouse IgG2A; Clone #22626; Catalog No. MAB218; R&D Systems, MN, USA)
